Non-standard residues stand in square brackets, D forms with d. No end group written: not given here. Phe(4-NH2) = Nc1ccc(C[C@H](N)C(=O)O)cc1; 1Nal = N[C@@H](Cc1cccc2ccccc12)C(=O)O; hArg = N=C(N)NCCCC[C@H](N)C(=O)O; 4Pal = N[C@@H](Cc1ccncc1)C(=O)O; Cha = N[C@@H](CC1CCCCC1)C(=O)O; Cit = NC(=O)NCCC[C@H](N)C(=O)O; 4Amb = NCc1ccc(C(=O)O)cc1; hSer = N[C@@H](CCO)C(=O)O; Orn = NCCC[C@H](N)C(=O)O; Ac3c = NC1(C(=O)O)CC1; Aib = CC(C)(N)C(=O)O
T1: human Y2 receptor (human, UniProt P49146 1-381)
T1 sequence (looked up): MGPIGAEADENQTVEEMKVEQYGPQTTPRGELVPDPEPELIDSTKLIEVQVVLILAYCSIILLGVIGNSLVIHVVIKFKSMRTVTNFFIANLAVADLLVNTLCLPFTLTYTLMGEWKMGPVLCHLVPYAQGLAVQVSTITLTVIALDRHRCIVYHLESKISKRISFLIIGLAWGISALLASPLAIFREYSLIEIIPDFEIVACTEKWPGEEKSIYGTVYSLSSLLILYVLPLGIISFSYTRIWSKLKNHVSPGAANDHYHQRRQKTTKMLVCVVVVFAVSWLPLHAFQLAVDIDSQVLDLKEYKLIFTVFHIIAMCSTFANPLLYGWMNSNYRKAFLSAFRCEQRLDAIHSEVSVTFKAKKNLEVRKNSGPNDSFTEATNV

B1: Ac-[D-Tyr21, D-Pro24, Cha27,28,36, Aib31]-PYY(21-36) (peptide)
peptide: Ac-[dY]AS[dP]RH[Cha][Cha]NL[Aib]TRQR[Cha]-NH2
SMILES: CC(=O)N[C@H](Cc1ccc(O)cc1)C(=O)N[C@@H](C)C(=O)N[C@@H](CO)C(=O)N1CCC[C@@H]1C(=O)N[C@@H](CCCNC(=N)N)C(=O)N[C@@H](Cc1c[nH]cn1)C(=O)N[C@@H](CC1CCCCC1)C(=O)N[C@@H](CC1CCCCC1)C(=O)N[C@@H](CC(N)=O)C(=O)N[C@@H](CC(C)C)C(=O)NC(C)(C)C(=O)N[C@H](C(=O)N[C@@H](CCCNC(=N)N)C(=O)N[C@@H](CCC(N)=O)C(=O)N[C@@H](CCCNC(=N)N)C(=O)N[C@@H](CC1CCCCC1)C(N)=O)[C@@H](C)O
notes: also called compound No. 121
B2: Ac-[D-Pro24, Cha27,28, Aib31]-PYY(23-36) (peptide)
peptide: Ac-S[dP]RH[Cha][Cha]NL[Aib]TRQRY-NH2
SMILES: CC(=O)N[C@@H](CO)C(=O)N1CCC[C@@H]1C(=O)N[C@@H](CCCNC(=N)N)C(=O)N[C@@H](Cc1c[nH]cn1)C(=O)N[C@@H](CC1CCCCC1)C(=O)N[C@@H](CC1CCCCC1)C(=O)N[C@@H](CC(N)=O)C(=O)N[C@@H](CC(C)C)C(=O)NC(C)(C)C(=O)N[C@H](C(=O)N[C@@H](CCCNC(=N)N)C(=O)N[C@@H](CCC(N)=O)C(=O)N[C@@H](CCCNC(=N)N)C(=O)N[C@@H](Cc1ccc(O)cc1)C(N)=O)[C@@H](C)O
notes: also called compound No. 142
B3: Ac-[D-Pro24, Cha27,28, Aib31, Phe36]-PYY(23-36) (peptide)
peptide: Ac-S[dP]RH[Cha][Cha]NL[Aib]TRQRF-NH2
SMILES: CC(=O)N[C@@H](CO)C(=O)N1CCC[C@@H]1C(=O)N[C@@H](CCCNC(=N)N)C(=O)N[C@@H](Cc1c[nH]cn1)C(=O)N[C@@H](CC1CCCCC1)C(=O)N[C@@H](CC1CCCCC1)C(=O)N[C@@H](CC(N)=O)C(=O)N[C@@H](CC(C)C)C(=O)NC(C)(C)C(=O)N[C@H](C(=O)N[C@@H](CCCNC(=N)N)C(=O)N[C@@H](CCC(N)=O)C(=O)N[C@@H](CCCNC(=N)N)C(=O)N[C@@H](Cc1ccccc1)C(N)=O)[C@@H](C)O
notes: also called compound No. 143
B4: 4-Aminomethylbenzoyl-[Ala26, Ile28,31, Har33]-PYY(25-36) (peptide)
peptide: [4Amb]RAYINLIT[hArg]QRY-NH2
modifications: N-terminus assumed
SMILES: CC[C@H](C)[C@H](NC(=O)[C@H](Cc1ccc(O)cc1)NC(=O)[C@H](C)NC(=O)[C@H](CCCNC(=N)N)NC(=O)c1ccc(CN)cc1)C(=O)N[C@@H](CC(N)=O)C(=O)N[C@@H](CC(C)C)C(=O)N[C@H](C(=O)N[C@H](C(=O)N[C@@H](CCCCNC(=N)N)C(=O)N[C@@H](CCC(N)=O)C(=O)N[C@@H](CCCNC(=N)N)C(=O)N[C@@H](Cc1ccc(O)cc1)C(N)=O)[C@@H](C)O)[C@@H](C)CC
notes: also called compound No. 11
B5: Ac-[D-Pro24, Cha27,36, Hse28, Aib31]-PYY(23-36) (peptide)
peptide: Ac-S[dP]RH[Cha][hSer]NL[Aib]TRQR[Cha]-NH2
SMILES: CC(=O)N[C@@H](CO)C(=O)N1CCC[C@@H]1C(=O)N[C@@H](CCCNC(=N)N)C(=O)N[C@@H](Cc1c[nH]cn1)C(=O)N[C@@H](CC1CCCCC1)C(=O)N[C@@H](CCO)C(=O)N[C@@H](CC(N)=O)C(=O)N[C@@H](CC(C)C)C(=O)NC(C)(C)C(=O)N[C@H](C(=O)N[C@@H](CCCNC(=N)N)C(=O)N[C@@H](CCC(N)=O)C(=O)N[C@@H](CCCNC(=N)N)C(=O)N[C@@H](CC1CCCCC1)C(N)=O)[C@@H](C)O
notes: also called compound No. 144
B6: 4-Aminomethylbenzoyl-[Orn25, Ala26, Ile28,31]-PYY(25-36) (peptide)
peptide: [4Amb][Orn]AYINLITRQRY-NH2
modifications: N-terminus assumed
SMILES: CC[C@H](C)[C@H](NC(=O)[C@H](Cc1ccc(O)cc1)NC(=O)[C@H](C)NC(=O)[C@H](CCCN)NC(=O)c1ccc(CN)cc1)C(=O)N[C@@H](CC(N)=O)C(=O)N[C@@H](CC(C)C)C(=O)N[C@H](C(=O)N[C@H](C(=O)N[C@@H](CCCNC(=N)N)C(=O)N[C@@H](CCC(N)=O)C(=O)N[C@@H](CCCNC(=N)N)C(=O)N[C@@H](Cc1ccc(O)cc1)C(N)=O)[C@@H](C)O)[C@@H](C)CC
notes: also called compound No. 10
B7: Ac-[D-Pro24, Cha27,36, Acpc28, Aib31]-PYY(23-36) (peptide)
peptide: Ac-S[dP]RH[Cha][Ac3c]NL[Aib]TRQR[Cha]-NH2
SMILES: CC(=O)N[C@@H](CO)C(=O)N1CCC[C@@H]1C(=O)N[C@@H](CCCNC(=N)N)C(=O)N[C@@H](Cc1c[nH]cn1)C(=O)N[C@@H](CC1CCCCC1)C(=O)NC1(C(=O)N[C@@H](CC(N)=O)C(=O)N[C@@H](CC(C)C)C(=O)NC(C)(C)C(=O)N[C@H](C(=O)N[C@@H](CCCNC(=N)N)C(=O)N[C@@H](CCC(N)=O)C(=O)N[C@@H](CCCNC(=N)N)C(=O)N[C@@H](CC2CCCCC2)C(N)=O)[C@@H](C)O)CC1
notes: also called compound No. 145
B8: Ac-[Gly23-ψ[(E)-CH═CH]-Leu24, Cha27,28,36, Aib31]-PYY(23-36) (peptide)
peptide: Ac-GLRH[Cha][Cha]NL[Aib]TRQR[Cha]-NH2
modifications: also: Gly1-Leu2 amide bond replaced by (E)-CH=CH alkene
notes: -CONH- bond between Gly23 and Leu24 is substituted by (E) type alkene; also called compound No. 122
B9: Ac-[D-Pro24, Cit27, Cha28,36, Aib31]-PYY(23-36) (peptide)
peptide: Ac-S[dP]RH[Cit][Cha]NL[Aib]TRQR[Cha]-NH2
SMILES: CC(=O)N[C@@H](CO)C(=O)N1CCC[C@@H]1C(=O)N[C@@H](CCCNC(=N)N)C(=O)N[C@@H](Cc1c[nH]cn1)C(=O)N[C@@H](CCCNC(N)=O)C(=O)N[C@@H](CC1CCCCC1)C(=O)N[C@@H](CC(N)=O)C(=O)N[C@@H](CC(C)C)C(=O)NC(C)(C)C(=O)N[C@H](C(=O)N[C@@H](CCCNC(=N)N)C(=O)N[C@@H](CCC(N)=O)C(=O)N[C@@H](CCCNC(=N)N)C(=O)N[C@@H](CC1CCCCC1)C(N)=O)[C@@H](C)O
notes: also called compound No. 146
B10: 4-Aminomethylbenzoyl-[Ala26, Ile28,31, Nal(1)36]-PYY(25-36) (peptide)
peptide: [4Amb]RAYINLITRQR[1Nal]-NH2
modifications: N-terminus assumed
SMILES: CC[C@H](C)[C@H](NC(=O)[C@H](Cc1ccc(O)cc1)NC(=O)[C@H](C)NC(=O)[C@H](CCCNC(=N)N)NC(=O)c1ccc(CN)cc1)C(=O)N[C@@H](CC(N)=O)C(=O)N[C@@H](CC(C)C)C(=O)N[C@H](C(=O)N[C@H](C(=O)N[C@@H](CCCNC(=N)N)C(=O)N[C@@H](CCC(N)=O)C(=O)N[C@@H](CCCNC(=N)N)C(=O)N[C@@H](Cc1cccc2ccccc12)C(N)=O)[C@@H](C)O)[C@@H](C)CC
notes: also called compound No. 13
B11: Ac-[D-Pro24, Cha27,28,36, Acpc31]-PYY(23-36) (peptide)
peptide: Ac-S[dP]RH[Cha][Cha]NL[Ac3c]TRQR[Cha]-NH2
SMILES: CC(=O)N[C@@H](CO)C(=O)N1CCC[C@@H]1C(=O)N[C@@H](CCCNC(=N)N)C(=O)N[C@@H](Cc1c[nH]cn1)C(=O)N[C@@H](CC1CCCCC1)C(=O)N[C@@H](CC1CCCCC1)C(=O)N[C@@H](CC(N)=O)C(=O)N[C@@H](CC(C)C)C(=O)NC1(C(=O)N[C@H](C(=O)N[C@@H](CCCNC(=N)N)C(=O)N[C@@H](CCC(N)=O)C(=O)N[C@@H](CCCNC(=N)N)C(=O)N[C@@H](CC2CCCCC2)C(N)=O)[C@@H](C)O)CC1
notes: also called compound No. 131
B12: 4-Aminomethylbenzoyl-[Ala26, Ile28,31, Phe(4NH2)36]-PYY(25-36) (peptide)
peptide: [4Amb]RAYINLITRQR[Phe(4-NH2)]-NH2
modifications: N-terminus assumed
SMILES: CC[C@H](C)[C@H](NC(=O)[C@H](Cc1ccc(O)cc1)NC(=O)[C@H](C)NC(=O)[C@H](CCCNC(=N)N)NC(=O)c1ccc(CN)cc1)C(=O)N[C@@H](CC(N)=O)C(=O)N[C@@H](CC(C)C)C(=O)N[C@H](C(=O)N[C@H](C(=O)N[C@@H](CCCNC(=N)N)C(=O)N[C@@H](CCC(N)=O)C(=O)N[C@@H](CCCNC(=N)N)C(=O)N[C@@H](Cc1ccc(N)cc1)C(N)=O)[C@@H](C)O)[C@@H](C)CC
notes: also called compound No. 12
B13: Ac-[Glu23, D-Pro24, Pya(4)26, Cha27,36, Tyr28, Lys30, Aib31]-PYY(23-36) (peptide)
peptide: Ac-E[dP]R[4Pal][Cha]YNK[Aib]TRQR[Cha]-NH2
SMILES: CC(=O)N[C@@H](CCC(=O)O)C(=O)N1CCC[C@@H]1C(=O)N[C@@H](CCCNC(=N)N)C(=O)N[C@@H](Cc1ccncc1)C(=O)N[C@@H](CC1CCCCC1)C(=O)N[C@@H](Cc1ccc(O)cc1)C(=O)N[C@@H](CC(N)=O)C(=O)N[C@@H](CCCCN)C(=O)NC(C)(C)C(=O)N[C@H](C(=O)N[C@@H](CCCNC(=N)N)C(=O)N[C@@H](CCC(N)=O)C(=O)N[C@@H](CCCNC(=N)N)C(=O)N[C@@H](CC1CCCCC1)C(N)=O)[C@@H](C)O
notes: also called compound No. 139

target: T1, human Y2 receptor; experiment: cell-based or functional assay

Row | Binder | GBA EC50 Ratio (vs PYY(3-36)), [35S]GTPγS
1 | B1 | 1.3 ratio
2 | B2 | 1.1 ratio
3 | B3 | 0.85 ratio
4 | B4 | 63 ratio
5 | B5 | 4.5 ratio
6 | B6 | 18 ratio
7 | B7 | 17 ratio
8 | B8 | 14 ratio
9 | B9 | 5.6 ratio
10 | B10 | 3.6 ratio
11 | B11 | 3.6 ratio
12 | B12 | 5 ratio
13 | B13 | 1.2 ratio

target: T1, human Y2 receptor; experiment: RBA: [125I]-PYY displacement, hY2R/CHO membranes
Protocol: After incubation at room temperature for 60 minutes, the mixture was filtered through the cell harvester FilterMate (PerkinElmer) using UniFilter-96 GF/C treated with polyethylenimine (PEI) solution (20 mM Tris, 0.3% PEI, pH 7.4), and the filter was washed 3 times with a filtering buffer (50 mM Tris, 5 mM MgCl₂, 150 mM NaCl, 0.03% NaN₃, 0.05% CHAPS, pH 7.4). Thereafter, UniFilter-96 GF/C was dried in a mechanical drier for 1 hour, 15 μl of the liquid scintillator MicroScint O (PerkinElmer) was added to each well, and a measurement was taken using TopCount (PerkinElmer). The data obtained were analyzed using Prism to calculate the IC₅₀ value.

Row | Binder | IC50 Ratio (vs PYY(3-36))
14 | B1 | 1.2 ratio
15 | B2 | 3.2 ratio
16 | B3 | 2.9 ratio
17 | B4 | 260 ratio
18 | B5 | 22 ratio
19 | B6 | 39 ratio
20 | B7 | 160 ratio
21 | B8 | 17 ratio
22 | B9 | 36 ratio
23 | B10 | 7.6 ratio
24 | B11 | 7 ratio
25 | B12 | 12 ratio
26 | B13 | 2.2 ratio

Source: patent US20120172293A1 (Takeda / Millennium, published 2012)
